From the nanobody polyreactivity screen of Harvey et al. (2022)

Experiment: yeast display, Sf9 membrane polyspecificity reagent, FACS + sequencing; frameworks hold sequencing errors
Outline: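 A synthetic nanobody library was expressed on Saccharomyces cerevisiae BJ5465 by galactose induction for 36–48 hours. The library was stained for 1 hour at 4 °C with 10% biotinylated, detergent-solubilized Sf9 membrane reagent and enriched with streptavidin microbeads before FACS. Low and high (top ~1%) gates were set on anti-HA fluorescence for expression and streptavidin fluorescence for reagent binding, and each polyreactivity label reflects the gate of origin.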

Row | Sequence | polyreactivity (PSR sort gate)
1 | QVQLVESGGGLVQAGGSLRLSCAASGSTFFTYTMGWYRQAPGKERELVARITSSGGSTYYADSVKGRFTISRDNAKNTVYLQMNSLKPEDTAVYYCNARYYSHPTYDYWGQGTQVTVSS | high polyreactivity
2 | QVQLVESGGGLVQAGGSLRLSCAASGSIFSPYAMGWYRQAPGKERELVAAISWTGGRTYYADSVKGRFTISRDNAKNTVYLQMNSLKPEDTAVYYGAAAYYGTRPYGYWGQGTQVTVSS | high polyreactivity
3 | QVQLVESGGGLVQAGGSLRLTCAASGFIFKANAMGWYRQAPGKERELVASITFGGDSTYYADSVKGRFTISRDNAKNTVYLHMNSLKPEDTAVYYCNTRRRSYRTYYYWGQGTQVTVLS | low polyreactivity
4 | QVQLVESGGGLVQAGGSLRLICAASGRIFKVYAMGWYRQAPGKERELVAVITGGGSTNYADSVKGRFTISRDNAKNTVDLQMNSLKPEDTAVYYCATEGYGHGGETDGGVYSELGSWGQGTQVTVSS | low polyreactivity
5 | QVQLVESGVGLVPAGGSLRLSCAASGSTFSANAMGWYRQAPGKERELVAAITYRGANTYYADSVKGRFTISRDNAKNTVYLQLNSLKPEDTAVYYCAAEYAYHHVGFGYWGQGTQVTVSS | low polyreactivity
6 | QEQLQESGGGLVQACGSLRLSCAASGYIFSHQYMGWYRQAPGKERELVASISPRATTNYADSVKGRFTISRDNAKNTVYLQMNSLKPEDTAVYYYAVYQILDRRLSYWGQGTQVTVSC | high polyreactivity
7 | QVQLVESGGGLVQAGGSLRLSCAASGSIGYYAMGWYRQAPGKERELVAAIDWSGGDTYYADSVKGRFTISRDNAKNTVYLQMNSLKPEDTAVYYCAKRLYLKTCAASSADDYWGQGTQVTVSS | low polyreactivity
8 | QDQLVESGGGLVQAGGSHRLSCAASGLTLTDNALGWYRQAPGKERELVAAISQSGGRTSYADSVKGRFTISRDNAKNTVYLQMNSLKPEDTAVYYCNTRRGSVAKYGYWGQGTQVTVSS | high polyreactivity
9 | QVQLVESGGGLVQAGGSLRLSCAASGFTFGYYAMGWYRQAPGKERELVGAINWSGGRTYYADSVKGRFTISRDNAKNTVYLQMNSLKPEDTAVYYCAASAHYDGDYWGQGTQVTVSS | high polyreactivity
10 | QVQLVESGGGLVQAGGSLRLSRAASGFTITYNAKGWSRPAPGKESELVAAITGDGGSTYYADSVKGRFTISRDNAKNTVYLQMNSLKPEDTAVYYCAAYVVWGGTDGRYDYWGQGTQVTVSS | low polyreactivity
11 | QVQLVESGGGLVQAGGSLRLSCAASGYIYYQYAMGWSRQAPGKERELVAGINWRGGSTYADSVKGRFTISRDNAKNTVYLQMNSLKPEDTEVYYCNAKQYRQDVFRRPSYYAYYYWGQGTQVTVSS | high polyreactivity
12 | QVQLVESGGGLVQAGGSLSLSCAASGSILYFNAMGWYRQAPGKERELVAAISRSGGSTYYADSVKGRFTISRDNAKNTVYIQMNSLKPEDTAVYSCAASYTVYYWGQGTQVTVTS | high polyreactivity
13 | QVQLVESGGGLVQAGGSLSLSCAASGSIFRSYAMGWYRQAPGKERELVAAITNGGSTYYADSVKGRFTISRDNAKNTVYLQMNSLKPEDTAVYYCAAARYTYWFYLVKKTGYYWGQGTQVTVSS | high polyreactivity
14 | QVQLVESGGGLLQAGGSLRLSCAASGFTFSYYAKGWYRQAPGKERELVAVISDRGGITYYADSVKGRFTISRDNAKNTVYLQMNSVKPEDTAVYYCAADLDSWYGYYYIVEYWGQGTQVTVSS | low polyreactivity
15 | QVQLVESGGGLVQAGGSLRLSCAASGRIFSSNVMGWYRQAPGKERELVAAITSGGSTYYADSVKGRFTISRDNAKNTVYLQMNSLKPEDTAVYYCAASYWVLRYRYDYWGQGTQVTVSS | high polyreactivity
16 | QVQLVESGGGLVQAGGSLRLSCAASGRTFAYNAMGWYRQAPGKERELVAANTDSDGNTNYADSVKRRFTISRDNAKNTVYVLLNSLIPEDTAVDYCAADYIILVHVTRGFGYEYWGQGTQVTVSS | low polyreactivity

Row | Sequence | polyreactivity (PSR sort gate)
17 | QVQLVESGGGLVQEGGSLRLSCASSGRIFDYYAMGWYRQAPGKESELVAAISSSVGNTYYADSVKGRFTISRDNAKNTVYFQMNRLKQEDTAVYYFADYSYVRSSYEVEYDYWGQGTQVTVSS | low polyreactivity
18 | QVQHVQSGGGLVQAGGRHRLSCAASGSTIRYYAMGWYRQAPGTERELVAAISGSGGRTYYADSVKGRFTISRDNAKNTGYLQMNSLKPEDTAVYYCYTRGRRTDNDYWGQGTQLTVSS | high polyreactivity
19 | QVQLVESGGGLVQAGGSLRLSCAASGRIFYYYGMGWYRQAPGKERELVAAISNGGRTYYADSVKGRFTISRDNAKNTVYLQMTSLKPEDTAVYYCAALTRGRGGYDYWGQGTQVTVSS | high polyreactivity
20 | QVQLVESGGGLVQAGGSLRLSCAASGSIFGPYAMGWYRQAPGKERELVAVISRSGGSTYYADSVKGRFTISRDNAKNTVYLQMNSLKPEDTAVYYCAAYRGPRADYYWGQGTHVTVSS | high polyreactivity
21 | QVQLVESGGGLVQAGGSLRLSCAASGRILPLYAMGWSRQAPGKERELVATMILDGDSTYYADSVKGRFTISRDNAKNTVYLQMNSQKPEDTAVYYCNDDYTPWGRGYPYDYWGQGSQVTVSS | low polyreactivity
22 | QVQLVDSAGGLVHAGGSLRLSCAASGLTFYSNTMGWYRPPPGKERELVAGISWGGDTTYYADSVKGRFTISRDNAKNTVYLQMNSLKPEDTAVYYCAADRSYWRHRYSYDYWGQGTQVTVSS | low polyreactivity
23 | QVQLVESGGGLVQAGGSLRLSCAASGSIFDYYAMGWYRQAPGKERELVADITSGGSTNYADSVKGRFTISRDNAKNTVYLQMNSLKPEDTAVYYCNALASRYPAYYYWGQGTQVTVSS | low polyreactivity
24 | QVQLVESGGGLVQAGGSLRLSCAASGSTFFLYAMGWYRQAPGKERELVAAISSGGSTNYADSVKGRFTISRDNAKNTVYLQMNSLKPEDTAVYYCAADAVRSHDYWGQGTQVTVSS | low polyreactivity
25 | QVQLVESGGGLVQAGGSLRLSCADSGRIFGRYAMGWYRQAPGQERELVAGISARGGSTYYADSVKGRFTISRDNAKNTVYLQMNRLKPEDTAVYYCAAAGYRGGGYWGQGTQVTVSS | high polyreactivity
26 | QVQLVESGGGLVQAGGSLRLSCAASGYIFVPYAMGWSRQAPGKERELVAAISRGGNTNYADSVKGRFTISRDNAKNTVYLQMNSLKPEDTAVYYCNADLVQYWGRRRWYDYWGQGTQVTVSS | low polyreactivity
27 | QVQLVESGGGLVQAGGSLRLSCAASGFTFKYYAMGWYRQAPGKERELVAAIRRSAGSTNYADSVKGRFTISRDNAKNTVYLQMNSLKPEDTAVYYCNTVGTRQPMDYWGQGTLVTVSS | high polyreactivity
28 | QVQLVESGGGLVQAGGILRLSCAASGSIFVKYTMGWYRQAPGKERELVAAISFRGGSTYYADSVKGRFTISRDNAKNTVYLQMNSLKPEDTAVYYCNADGGWWPEYYWGQGTQVTVSS | low polyreactivity
29 | QVQLVESGGCLVQAGGSLRLTCAASGFTLGFNAMGWYRQAPGKERELVAAITIGGTTYYADSVKGRFTLSRDNAKNTVYLQMNSLKPEDTAVYYCAASPVWWYDYWGQGTQVTVSS | low polyreactivity
30 | QVQLVESGGGLVQAGGSLRLSCAASGFTIVPYAMGWYRQAPGNERELVAAISRRGSRTYYADSVKGRFTISRDNAKNTVYLQMNSLKAEDTAVYYCAAKLSAVKAAYDYWGQGTQVTVSS | high polyreactivity
31 | QDQLVESAGGLVQAGGSLRLSCAASGRIFVFNAMGWYIQAPGKERELVAGINRGASTYYADSVKGRFTISRDNAKNTVYFQMNSLKPEDTAVYYCAADNFWWTKLYYWGQGTQVTVSS | high polyreactivity
32 | QVQLVESGGGLVQAGGSLRLSCAASGFIFAYYAMGWYRQAPGKERELVAAISSRAGRTYYADSVKGRFTISRDNAKNTVYLQMNSLKPEYTAVYYWAAPTSSSGRYHRYYYWGQGTQVTVSS | high polyreactivity
